# Assay results reported in the supplement of paper PMC9112550, “Optimization of the antimicrobial peptide Bac7 by deep mutational scanning” (BMC Biology, 2022).
# Tested on: Escherichia coli TOP10
# Experiment: shrunken log2 fold change of peptide-encoding DNA abundance (4.5 h post-induction vs induction); higher = less antimicrobial activity (less host growth inhibition)
# Settings: time post-induction: 4.5 h; library: site-saturation at positions 5, 18, 19, 20
# 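Also: peptides expressed intracellularly from a pBAD plasmid library in pooled LB shake-flask culture, induced with 0.3% L-arabinose, DNA abundance read by NGS, three biological replicates, DESeq2 with apeglm shrinkage.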
row,Sequence,shrunken log2 fold change
1,RRIRMRPPRLPRPRPRPWIHPRP,-0.0313
2,RRIRGRPPRLPRPRPRPPEHPRP,0.853
3,RRIRCRPPRLPRPRPRPFIIPRP,-0.577
4,RRIRARPPRLPRPRPRPQYTPRP,-0.496
5,RRIRWRPPRLPRPRPRPPMDPRP,0.0637
6,RRIRMRPPRLPRPRPRPITLPRP,-0.521
7,RRIRVRPPRLPRPRPRPHKPPRP,-0.0132
8,RRIRKRPPRLPRPRPRPGKGPRP,-0.0491
9,RRIRKRPPRLPRPRPRPVQDPRP,0.295
10,RRIRKRPPRLPRPRPRPWSGPRP,0.104
11,RRIRFRPPRLPRPRPRPQDYPRP,0.0577
12,RRIRTRPPRLPRPRPRPIREPRP,-0.0125
13,RRIRGRPPRLPRPRPRPGQQPRP,0.0088
14,RRIRCRPPRLPRPRPRPICIPRP,-0.191
15,RRIRHRPPRLPRPRPRPVYWPRP,-0.262
16,RRIRGRPPRLPRPRPRPSATPRP,3.09
17,RRIRIRPPRLPRPRPRPRQGPRP,0.0734
18,RRIRMRPPRLPRPRPRPQCHPRP,0.0857
19,RRIRCRPPRLPRPRPRPAFEPRP,0.0704
20,RRIRPRPPRLPRPRPRPHCCPRP,-0.181
21,RRIRERPPRLPRPRPRPACHPRP,-0.0945
22,RRIRARPPRLPRPRPRPKTPPRP,0.903
23,RRIRPRPPRLPRPRPRPAGKPRP,-0.0291
24,RRIRRRPPRLPRPRPRPQYSPRP,-0.108
25,RRIRSRPPRLPRPRPRPKTSPRP,0.187

row,Sequence,shrunken log2 fold change
1,RRIRDRPPRLPRPRPRPQIQPRP,-0.221
2,RRIRSRPPRLPRPRPRPVGAPRP,0.538
3,RRIRARPPRLPRPRPRPSMDPRP,1.4
4,RRIRCRPPRLPRPRPRPWSYPRP,-0.441
5,RRIRCRPPRLPRPRPRPRDDPRP,0.274
6,RRIRHRPPRLPRPRPRPYMFPRP,-0.319
7,RRIRGRPPRLPRPRPRPKDNPRP,0.578
8,RRIRTRPPRLPRPRPRPFCMPRP,-0.24
9,RRIRARPPRLPRPRPRPVHQPRP,0.346
10,RRIRFRPPRLPRPRPRPFWIPRP,-0.357
11,RRIRRRPPRLPRPRPRPQDYPRP,-0.268
12,RRIRVRPPRLPRPRPRPHKDPRP,-0.36
13,RRIRQRPPRLPRPRPRPYNLPRP,-0.00751
14,RRIRTRPPRLPRPRPRPGHAPRP,0.161
15,RRIRDRPPRLPRPRPRPDYSPRP,0.0125
16,RRIRCRPPRLPRPRPRPNLCPRP,-0.427
17,RRIRKRPPRLPRPRPRPLLWPRP,0.443
18,RRIRGRPPRLPRPRPRPEADPRP,1
19,RRIRYRPPRLPRPRPRPWCPPRP,-0.28
20,RRIRCRPPRLPRPRPRPYHCPRP,-0.271
21,RRIRWRPPRLPRPRPRPHTIPRP,-0.533
22,RRIRLRPPRLPRPRPRPKMTPRP,-0.181
23,RRIRMRPPRLPRPRPRPSSPPRP,0.16
24,RRIRKRPPRLPRPRPRPDRIPRP,-0.00844
25,RRIRYRPPRLPRPRPRPWPWPRP,0.0314

row,Sequence,shrunken log2 fold change
1,RRIRDRPPRLPRPRPRPSRHPRP,0.0369
2,RRIRHRPPRLPRPRPRPCTKPRP,0.0647
3,RRIRWRPPRLPRPRPRPMLKPRP,-0.109
4,RRIRVRPPRLPRPRPRPDLSPRP,-0.011
5,RRIRCRPPRLPRPRPRPMKTPRP,-0.11
6,RRIRRRPPRLPRPRPRPWMKPRP,-0.196
7,RRIRNRPPRLPRPRPRPVYNPRP,-0.381
8,RRIRLRPPRLPRPRPRPKWIPRP,0.137
9,RRIRGRPPRLPRPRPRPWIYPRP,-0.372
10,RRIRGRPPRLPRPRPRPQCVPRP,-0.0809
11,RRIRNRPPRLPRPRPRPYLMPRP,-0.287
12,RRIRPRPPRLPRPRPRPIMWPRP,0.253
13,RRIRERPPRLPRPRPRPECLPRP,-0.137
14,RRIRDRPPRLPRPRPRPFMRPRP,0.05
15,RRIRNRPPRLPRPRPRPNHRPRP,-0.216
16,RRIRLRPPRLPRPRPRPWWGPRP,-0.063
17,RRIRPRPPRLPRPRPRPLTLPRP,0.121
18,RRIRIRPPRLPRPRPRPGPDPRP,-0.0181
19,RRIRARPPRLPRPRPRPRMLPRP,0.395
20,RRIRDRPPRLPRPRPRPRNDPRP,-0.461
21,RRIRHRPPRLPRPRPRPDQRPRP,-0.00114
22,RRIRERPPRLPRPRPRPVVYPRP,-0.945
23,RRIRSRPPRLPRPRPRPQWRPRP,0.11
24,RRIRVRPPRLPRPRPRPSKLPRP,-0.797
25,RRIRTRPPRLPRPRPRPSQKPRP,0.039

row,Sequence,shrunken log2 fold change
1,RRIRARPPRLPRPRPRPGDMPRP,0.374
2,RRIRMRPPRLPRPRPRPQGVPRP,-0.0179
3,RRIRRRPPRLPRPRPRPFLEPRP,0.0277
4,RRIRCRPPRLPRPRPRPDCVPRP,0.184
5,RRIRERPPRLPRPRPRPASLPRP,0.0301
6,RRIRERPPRLPRPRPRPEKVPRP,-0.0174
7,RRIRFRPPRLPRPRPRPVQPPRP,0.246
8,RRIRDRPPRLPRPRPRPASRPRP,0.17
9,RRIRIRPPRLPRPRPRPTAQPRP,0.154
10,RRIRGRPPRLPRPRPRPTVDPRP,0.836
11,RRIRARPPRLPRPRPRPGHKPRP,-0.197
12,RRIRIRPPRLPRPRPRPHHFPRP,-0.313
13,RRIRGRPPRLPRPRPRPTRSPRP,1.18
14,RRIRRRPPRLPRPRPRPSMPPRP,-0.0915
15,RRIRYRPPRLPRPRPRPVVMPRP,0.00213
16,RRIRTRPPRLPRPRPRPTWDPRP,0.478
17,RRIRFRPPRLPRPRPRPNGGPRP,0.000932
18,RRIRVRPPRLPRPRPRPDLVPRP,0.211
19,RRIRGRPPRLPRPRPRPHNTPRP,-0.277
20,RRIRTRPPRLPRPRPRPVFQPRP,-0.0322
21,RRIRMRPPRLPRPRPRPDEKPRP,-0.0255
22,RRIRCRPPRLPRPRPRPQGEPRP,0.161
23,RRIRNRPPRLPRPRPRPQTHPRP,-0.217
24,RRIRCRPPRLPRPRPRPERCPRP,0.302
25,RRIRYRPPRLPRPRPRPECHPRP,0.0154

row,Sequence,shrunken log2 fold change
1,RRIRGRPPRLPRPRPRPWVVPRP,0.273
2,RRIRDRPPRLPRPRPRPLTTPRP,0.135
3,RRIRSRPPRLPRPRPRPCFPPRP,-0.747
4,RRIRGRPPRLPRPRPRPWRGPRP,0.228
5,RRIRDRPPRLPRPRPRPLYMPRP,0.383
6,RRIRLRPPRLPRPRPRPVAIPRP,0.0902
7,RRIRKRPPRLPRPRPRPKTSPRP,0.489
8,RRIRYRPPRLPRPRPRPDTTPRP,0.0425
9,RRIRARPPRLPRPRPRPLNQPRP,-0.0348
10,RRIRMRPPRLPRPRPRPPLFPRP,0.919
11,RRIRDRPPRLPRPRPRPPQSPRP,0.613
12,RRIRTRPPRLPRPRPRPIQTPRP,-0.0398
13,RRIRIRPPRLPRPRPRPEDYPRP,-0.0393
14,RRIRLRPPRLPRPRPRPYNAPRP,-0.0942
15,RRIRVRPPRLPRPRPRPTSEPRP,0.066
16,RRIRGRPPRLPRPRPRPFWMPRP,0.103
17,RRIRRRPPRLPRPRPRPPACPRP,0.619
18,RRIRWRPPRLPRPRPRPHHKPRP,-0.23
19,RRIRWRPPRLPRPRPRPLKYPRP,-0.384
20,RRIRHRPPRLPRPRPRPFKIPRP,-0.192
21,RRIRWRPPRLPRPRPRPRRIPRP,0.109
22,RRIRGRPPRLPRPRPRPDCWPRP,1.58
23,RRIRGRPPRLPRPRPRPNAQPRP,0.836
24,RRIRMRPPRLPRPRPRPGVSPRP,0.461
25,RRIRYRPPRLPRPRPRPQRYPRP,-0.771

row,Sequence,shrunken log2 fold change
1,RRIRVRPPRLPRPRPRPFMAPRP,-0.128
2,RRIRVRPPRLPRPRPRPDEAPRP,-0.0574
3,RRIRLRPPRLPRPRPRPNNPPRP,-0.157
4,RRIRQRPPRLPRPRPRPKDNPRP,-0.23
5,RRIRCRPPRLPRPRPRPISGPRP,0.0437
6,RRIRCRPPRLPRPRPRPASPPRP,0.117
7,RRIRTRPPRLPRPRPRPAPYPRP,0.151
8,RRIRCRPPRLPRPRPRPMKPPRP,0.0236
9,RRIRDRPPRLPRPRPRPTFPPRP,0.0873
10,RRIRARPPRLPRPRPRPYWNPRP,-0.566
11,RRIRLRPPRLPRPRPRPCASPRP,0.259
12,RRIRIRPPRLPRPRPRPTGKPRP,-0.129
13,RRIRIRPPRLPRPRPRPMCCPRP,-0.212
14,RRIRLRPPRLPRPRPRPFAVPRP,-0.0849
15,RRIRCRPPRLPRPRPRPIVIPRP,-1.09
16,RRIRYRPPRLPRPRPRPHLLPRP,-0.515
17,RRIRERPPRLPRPRPRPFYRPRP,-0.111
18,RRIRHRPPRLPRPRPRPSMTPRP,0.0628
19,RRIRVRPPRLPRPRPRPNCYPRP,-0.411
20,RRIRDRPPRLPRPRPRPIITPRP,-0.0771
21,RRIRVRPPRLPRPRPRPCKVPRP,0.00272
22,RRIRARPPRLPRPRPRPKSSPRP,0.188
23,RRIRFRPPRLPRPRPRPEPKPRP,0.415
24,RRIRDRPPRLPRPRPRPPYRPRP,0.0425
25,RRIRFRPPRLPRPRPRPPIRPRP,-0.0123
